Test results from doi:10.1101/2022.11.07.515236 (bioRxiv, 2022).

T1: Fc chimera of recombinant human type II BMP receptor BMPRII (human, UniProt Q13873)
T1 sequence: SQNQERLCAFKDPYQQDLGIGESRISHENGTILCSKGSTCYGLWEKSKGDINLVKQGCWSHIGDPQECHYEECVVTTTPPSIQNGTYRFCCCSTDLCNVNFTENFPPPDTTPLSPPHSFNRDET

B1: recombinant human GDF3 (ligand)
chain: AAIPVPKLSCKNLCHRHQLFINFRDLGWHKWIIAPKGFMANYCHGECPFSLTISLNSSNYAFMQALMHAVDPEIPQAVCIPTKLSPISMLYQDNNDNVILRHYEDMVVDECGCG
B2: recombinant mouse GDF3 (ligand)
chain: AAISVPKGFCRNFCHRHQLFINFQDLGWHKWVIAPKGFMANYCHGECPFSMTTYLNSSNYAFMQALMHMADPKVPKAVCVPTKLSPISMLYQDSDKNVILRHYEDMVVDECGCG

Legend:
[1] = molecular target: T2, recombinant human ACTRIIA-Fc (human, UniProt P27037); assay: SPR
[2] = molecular target: T1, Fc chimera of recombinant human type II …; assay: SPR
[3] = molecular target: T2, recombinant human ACTRIIA-Fc; assay: BLI
[4] = molecular target: T1, Fc chimera of recombinant human type II …; assay: BLI

T2 sequence (P27037 20-135): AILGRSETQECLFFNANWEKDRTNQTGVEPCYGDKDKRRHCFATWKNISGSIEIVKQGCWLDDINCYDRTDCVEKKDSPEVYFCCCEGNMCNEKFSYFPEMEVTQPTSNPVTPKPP

Binder	binding result [1]	binding result [2]	binding result [3]	binding result [4]
B1	binds	binds		
B2			binds	binds
